# Measurements as given in patent publication US20020160955A1 (published 2002).
# Where a chain is given by its changes, count along the chain named.
# B1: human IGFBP-1 (other, UniProt P08833 26-259, looked up)
# chain: APWQCAPCSAEKLALCPPVSASCSEVTRSAGCGCCPMCALPLGAACGVATARCARGLSCRALPGEQQPLHALTRGQGACVQESDASAPHAAEAGSPESPESTEITEEELLDNFHLMAPSEEDHSILWDAISTYDGSKALHVTNIKKWKEPCRIELYRVVESLAKAQETSGEEISKFYLPNCNKNGFYHSRQCETSMDGEAGLCWCVYPWNGKRIPGSPEIRGDPNCQIYFNVQN
# notes: secreted recombinant protein purified from conditioned medium
# Columns and labels:
# Experiment in all cases: competitive phage ELISA
# [1] = target: T1, IGF-I D12A (G1S-A70V background) displayed on phage (human; bacteriophage M13)
# T1 construct: monovalent M13 phage display
# T1 chain: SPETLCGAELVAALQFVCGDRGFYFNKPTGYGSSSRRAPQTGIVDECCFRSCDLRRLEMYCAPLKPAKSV
# Description: (§1) Phage particles were harvested and resuspended in PBS buffer as described in Lowman, H. B., “Phage Display of Peptide Libraries on Protein Scaffolds,” in Cabilly, S. (ed.), Combinatorial Peptide Library Protocols (Humana Press Inc.: Totowa, N.J., 1998), pp. 249-264. Then phage concentrations were normalized to yield a maximal ELISA signal of 0.2-0.4 for each mutant (Lowman, in Cabilly, S. (ed.), supra). Threefold serial dilutions of soluble competitor were prepared on non-absorbent microtiter plates (Nunc, F, 96 wells) with binding buffer (0.5% TWEEN™ 20/PBS) containing phage at the previously-determined concentrations. […] After blocking, the plates containing immobilized target were washed with 0.05% TWEEN™/PBS buffer and subsequently incubated with 80 μl/well of the premixed phage-competitor solutions for 1 hour at room temperature. After washing, bound phage was detected with 80 μl/well of a solution containing a primary rabbit anti-phage polyclonal antibody and a secondary goat anti-rabbit monoclonal antibody-horseradish peroxidase conjugate in 0.5% TWEEN 20™/PBS. o-Phenylenediamine (Sigma) and tetramethylbenzidine (Kirkegaard and Perry) were used as chromogenic substrates, resulting in product detection at 492 and 450 nm, respectively. IC₅₀ values were determined by fitting the binding data to a generic saturation curve (Lowman, in Cabilly, S. (ed.), supra). […] Numbers in Table I represent mean +standard deviation of individually assessed IC₅₀ values.
# (§2) At least two different clones of every mutant were tested.
# [2] = target: T2, IGF-I D20A (G1S-A70V background) displayed on phage (human; bacteriophage M13, not fully specified; Displayed monovalently on M13 phage as a C-terminal fusion to the gene III fragment, which is left out of the letters.)
# T2 construct: monovalent M13 phage display; not shown: Display carrier: M13 gene III fragment (residues 249-406) and its junction
# T2 chain: T1 chain with A12D, D20A
# Description: as §1, §2
# [3] = target: T3, IGF-I S1G (G1S-A70V background) displayed on phage (human; bacteriophage M13, UniProt P69168 267-424)
# T3 construct: range 249-406; monovalent M13 phage display
# Description: as §1, §2
# [4] = target: T4, IGF-I D53A (G1S-A70V background) displayed on phage (human; bacteriophage M13)
# T4 construct: monovalent M13 phage display
# T4 chain: T1 chain with A12D, D53A
# Description: as §1, §2
# [5] = target: T5, IGF-I K68A (G1S-A70V background) displayed on phage (human; bacteriophage M13, UniProt P69168 267-424)
# T5 chain: T1 chain with A12D, K68A
# Description: as §1, §2
# [6] = target: T6, IGF-I Y31A (G1S-A70V background) displayed on phage (human; bacteriophage M13)
# T6 construct: monovalent M13 phage display; not shown: M13 gene III fragment (residues 249-406, display partner) and the junction to it
# T6 chain: T1 chain with A12D, Y31A
# Description: as §1, §2
# [7] = target: T7, IGF-I F25A (G1S-A70V background) displayed on phage (human; bacteriophage M13, not fully specified; Displayed monovalently on M13 phage as a C-terminal fusion to the gene III fragment, which is left out of the letters.)
# T7 construct: monovalent M13 phage display; not shown: Display carrier: M13 gene III fragment (residues 249-406) and its junction
# T7 chain: T1 chain with A12D, F25A
# Description: as §1, §2
# [8] = target: T8, IGF-I F16A (G1S-A70V background) displayed on phage (human; bacteriophage M13)
# T8 construct: monovalent M13 phage display
# T8 chain: T1 chain with A12D, F16A
# Description: as §1, §2
# [9] = target: T9, IGF-I V17A (G1S-A70V background) displayed on phage (human; bacteriophage M13)
# T9 construct: monovalent M13 phage display
# T9 chain: T1 chain with A12D, V17A
# Description: as §1, §2
# [10] = target: T10, IGF-I S69A (G1S-A70V background) displayed on phage (human; bacteriophage M13, UniProt P69168 267-424)
# T10 chain: T1 chain with A12D, S69A
# Description: as §1, §2
# [11] = target: T11, IGF-I I43A (G1S-A70V background) displayed on phage (human; bacteriophage M13)
# T11 construct: monovalent M13 phage display
# T11 chain: T1 chain with A12D, I43A
# Description: as §1, §2
# [12] = target: T12, des(1-2)-IGF-I displayed on phage (human; bacteriophage M13)
# T12 construct: range 249-406; monovalent M13 phage display
# Description: as §1, §2
# [13] = target: T13, IGF-I M59A (G1S-A70V background) displayed on phage (human; bacteriophage M13)
# T13 construct: monovalent M13 phage display; not shown: M13 gene III protein fragment (residues 249-406), the phage display carrier, and its junction to IGF-I
# T13 chain: T1 chain with A12D, M59A
# Description: as §1, §2
# [14] = target: T14, IGF-I G32A (G1S-A70V background) displayed on phage (human; bacteriophage M13)
# T14 construct: monovalent M13 phage display; not shown: M13 gene III fragment (residues 249-406, display partner) and the junction to it
# T14 chain: T1 chain with A12D, G32A
# Description: as §1, §2
# [15] = target: T15, Ala(1-3)-IGF-I displayed on phage (human; bacteriophage M13, UniProt P69168 267-424)
# T15 chain: T1 chain with S1A, P2A, E3A, A12D
# Description: as §1, §2
binder,measurement,setting,value
B1,IC50,[1],4.3 nM
same,IC50,[2],8.4 nM
same,IC50,[3],11.2 nM
same,IC50,[4],15.3 nM
same,IC50,[5],10.5 nM
same,IC50,[6],6.8 nM
same,IC50,[7],181 nM
same,IC50,[8],57.8 nM
same,IC50,[9],42.9 nM
same,IC50,[10],12.8 nM
same,IC50,[11],31.3 nM
same,IC50,[12],5 nM
same,IC50,[13],13.1 nM
same,IC50,[14],10.9 nM
same,IC50,[15],90.4 nM
